From patent US20240116985A1 (published 2024)
Starred links: 1 amine or outer side, 2 acyl side, 3 side chain; linkers in the order of their positions; H or OH if unused. Positions of bridges follow the written chain, without caps; N, C: chain ends. Non-standard residues stand in square brackets, D forms with d. Primed or numbered codes have the meaning given here. PyrS3″ = (S)-3-amino-1-((hex-5-en-1-yloxy)carbonyl)pyrrolidine-3-carboxylic acid (stapling residue), C=CCCCCOC(=O)N1CC[C@@](N[*:1])(C(=O)[*:2])C1; B5(4) = 2,2-bis(4-pentenyl)glycine = 2-amino-2-(pent-4-en-1-yl)hept-6-enoic acid (stitching residue), C=CCCCC(CCCC=C)(N[*:1])C(=O)[*:2]; B5(21) = 2-amino-2-(pent-4-en-1-yl)hept-6-enoic acid, bis(4-pentenyl)glycine (stitching residue), C=CCCCC(CCCC=C)(N[*:1])C(=O)[*:2]; B5(6) = 2-amino-2-(pent-4-en-1-yl)hept-6-enoic acid (bis(4-pentenyl)glycine), stitching residue, C=CCCCC(CCCC=C)(N[*:1])C(=O)[*:2]; Phe(2-NO2) = N[C@@H](Cc1ccccc1[N+](=O)[O-])C(=O)O; Phe(3-F) = N[C@@H](Cc1cccc(F)c1)C(=O)O; Phe(4-F) = N[C@@H](Cc1ccc(F)cc1)C(=O)O; Phe(2-F) = N[C@@H](Cc1ccccc1F)C(=O)O; Bta = N[C@@H](Cc1csc2ccccc12)C(=O)O; αAllylPro = C=CC[C@@]1(C(=O)O)CCCN1; 2Thi = N[C@@H](Cc1cccs1)C(=O)O; S8 = C=CCCCCCC[C@](C)(N)C(=O)O

T1: B-cat-Halo (NanoBRET construct expressed in HEK293 cells) (UniProt P35222 1-781, HaloTag NanoBRET 618 Ligand bound in the assay)
T1 sequence (looked up): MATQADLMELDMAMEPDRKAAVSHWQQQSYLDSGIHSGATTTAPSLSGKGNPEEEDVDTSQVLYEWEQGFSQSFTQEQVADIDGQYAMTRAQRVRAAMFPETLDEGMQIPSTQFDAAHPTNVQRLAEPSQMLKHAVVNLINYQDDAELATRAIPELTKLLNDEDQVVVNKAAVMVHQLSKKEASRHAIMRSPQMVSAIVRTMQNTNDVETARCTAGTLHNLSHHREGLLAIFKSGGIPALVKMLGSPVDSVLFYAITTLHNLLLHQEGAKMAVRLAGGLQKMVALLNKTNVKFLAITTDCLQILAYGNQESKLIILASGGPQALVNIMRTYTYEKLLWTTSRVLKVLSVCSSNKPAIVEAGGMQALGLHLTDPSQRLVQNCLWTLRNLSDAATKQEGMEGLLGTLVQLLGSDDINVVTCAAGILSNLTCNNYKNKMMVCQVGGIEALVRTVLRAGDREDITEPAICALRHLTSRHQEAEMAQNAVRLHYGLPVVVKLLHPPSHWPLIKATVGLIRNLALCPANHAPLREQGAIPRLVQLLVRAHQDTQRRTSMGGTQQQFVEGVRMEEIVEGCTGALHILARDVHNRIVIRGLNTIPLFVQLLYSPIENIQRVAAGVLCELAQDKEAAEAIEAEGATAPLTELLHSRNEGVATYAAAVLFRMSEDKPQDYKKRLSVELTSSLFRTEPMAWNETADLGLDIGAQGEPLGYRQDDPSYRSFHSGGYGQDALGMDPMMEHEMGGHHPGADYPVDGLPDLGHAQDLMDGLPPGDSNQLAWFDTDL

T2: full-length beta-Catenin (Uniprot ID P35222) (Homo sapiens (Human), UniProt P35222 1-781)
T2 construct: also called bCat; B-Catenin
T2 sequence: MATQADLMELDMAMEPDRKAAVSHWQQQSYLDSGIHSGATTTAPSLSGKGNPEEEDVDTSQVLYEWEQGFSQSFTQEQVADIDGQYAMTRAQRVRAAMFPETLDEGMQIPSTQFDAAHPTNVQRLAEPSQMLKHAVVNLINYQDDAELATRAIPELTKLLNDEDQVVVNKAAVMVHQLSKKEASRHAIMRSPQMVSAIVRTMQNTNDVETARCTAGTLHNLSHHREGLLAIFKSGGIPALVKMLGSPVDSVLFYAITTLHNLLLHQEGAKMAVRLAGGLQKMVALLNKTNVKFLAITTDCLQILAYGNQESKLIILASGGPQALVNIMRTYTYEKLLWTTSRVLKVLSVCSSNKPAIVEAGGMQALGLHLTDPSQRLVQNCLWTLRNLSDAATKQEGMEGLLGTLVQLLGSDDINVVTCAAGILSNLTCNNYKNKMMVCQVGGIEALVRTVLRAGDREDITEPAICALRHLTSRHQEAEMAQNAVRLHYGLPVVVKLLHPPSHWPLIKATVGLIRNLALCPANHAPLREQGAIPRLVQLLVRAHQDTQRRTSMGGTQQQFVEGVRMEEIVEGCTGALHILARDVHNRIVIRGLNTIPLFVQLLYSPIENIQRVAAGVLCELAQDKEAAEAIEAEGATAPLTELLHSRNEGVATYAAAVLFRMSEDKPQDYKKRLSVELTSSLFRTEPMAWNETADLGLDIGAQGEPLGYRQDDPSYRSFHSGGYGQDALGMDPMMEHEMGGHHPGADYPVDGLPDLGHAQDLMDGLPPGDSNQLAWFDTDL

T3: full-length beta-Catenin (Uniprot ID P35222) (Homo sapiens (Human), UniProt P35222 1-781)
T3 construct: also called bCat; B-Catenin
T3 sequence: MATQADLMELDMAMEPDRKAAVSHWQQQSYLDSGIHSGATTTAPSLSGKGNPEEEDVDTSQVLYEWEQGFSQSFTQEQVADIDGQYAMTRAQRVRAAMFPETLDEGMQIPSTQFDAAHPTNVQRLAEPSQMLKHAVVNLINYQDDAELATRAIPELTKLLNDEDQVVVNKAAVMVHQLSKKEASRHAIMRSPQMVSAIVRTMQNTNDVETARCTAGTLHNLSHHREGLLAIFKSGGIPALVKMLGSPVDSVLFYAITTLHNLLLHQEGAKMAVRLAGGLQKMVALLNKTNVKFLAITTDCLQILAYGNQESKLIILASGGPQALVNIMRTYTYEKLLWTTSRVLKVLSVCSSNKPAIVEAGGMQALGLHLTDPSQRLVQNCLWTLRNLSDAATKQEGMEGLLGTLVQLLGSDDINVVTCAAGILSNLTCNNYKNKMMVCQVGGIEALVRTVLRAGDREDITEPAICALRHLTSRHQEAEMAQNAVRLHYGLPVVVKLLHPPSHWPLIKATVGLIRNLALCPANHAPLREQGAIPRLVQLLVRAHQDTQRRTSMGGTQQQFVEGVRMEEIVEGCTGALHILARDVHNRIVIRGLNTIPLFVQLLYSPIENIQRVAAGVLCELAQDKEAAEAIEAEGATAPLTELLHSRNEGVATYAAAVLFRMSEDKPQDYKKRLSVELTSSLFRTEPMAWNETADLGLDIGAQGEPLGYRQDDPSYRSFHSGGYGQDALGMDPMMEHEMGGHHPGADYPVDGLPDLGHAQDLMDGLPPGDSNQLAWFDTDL

B1: I-751 (peptide)
peptide: Ac-[αAllylPro]DL[B5(4)]DEAAFN[S8]F[Bta]S-NH2
modifications: staple 1-4, 4-11; also: olefin E/Z not assigned, later-eluting staple isomer
notes: Stapled peptide; shares its description with I-750, later eluting HPLC peak (staple isomer composition); also called Ac-PL3-Asp-Leu-B5-Asp-Glu-Ala-Ala-Phe-Asn-S8-Phe-BztA-Ser-NH2
B2: I-753 (peptide)
peptide: Ac-[αAllylPro]DL[B5(4)]DEAAFN[S8]F[Bta]N-NH2
modifications: staple 1-4, 4-11; also: olefin E/Z not assigned, later-eluting staple isomer
notes: Stapled peptide; also called Ac-PL3-Asp-Leu-B5-Asp-Glu-Ala-Ala-Phe-Asn-S8-Phe-BztA-Asn-NH2
B3: I-752 (peptide)
peptide: Ac-[αAllylPro]DL[B5(4)]DEAAFN[S8]F[Bta]N-NH2
modifications: staple 1-4, 4-11; also: olefin E/Z not assigned, earlier-eluting staple isomer
notes: as for B2
B4: I-469 (peptide)
peptide: Ac-[αAllylPro]DI[B5(6)]DDAAFN[S8]F[Bta]H-NH2
modifications: staple 1-4, 4-11; also: staple isomer composition: earlier-eluting HPLC peak
notes: Stapled peptide; earlier-eluting HPLC peak (staple isomer composition)
B5: I-467 (peptide)
peptide: Ac-[αAllylPro]DI[B5(6)]DDAAFN[S8]F[Bta]Q-NH2
modifications: staple 1-4, 4-11; also: staple isomer composition: earlier-eluting HPLC peak
notes: as for B4
B6: I-468 (peptide)
peptide: Ac-[αAllylPro]DI[B5(6)]DDAAFN[S8]F[Bta]Q-NH2
modifications: staple 1-4, 4-11; also: staple isomer composition: later-eluting HPLC peak
notes: Stapled peptide; later-eluting HPLC peak (staple isomer composition)
B7: I-464 (peptide)
peptide: Ac-[αAllylPro]DA[B5(21)]DEAAFN[PyrS3″]F[Bta]Q-NH2
modifications: staple 1-4, 4-11; not fully specified; printed as Ac-PL3-Asp-Ala-B5-Asp-Glu-Ala-Ala-Phe-Asn-PyrS3-Phe-BztA-Gln-NH2
notes: as for B6
B8: I-463 (peptide)
peptide: Ac-[αAllylPro]DA[B5(21)]DEAAFN[PyrS3″]F[Bta]Q-NH2
modifications: staple 1-4, 4-11; also: earlier-eluting HPLC staple isomer
notes: as for B4
B9: I-756 (peptide)
peptide: Ac-[αAllylPro]DL[B5(4)]DEAAFN[S8]F[Bta][dS]-NH2
modifications: staple 1-4, 4-11
notes: Stapled peptide; also called Ac-PL3-Asp-Leu-B5-Asp-Glu-Ala-Ala-Phe-Asn-S8-Phe-BztA-dSer-NH2

target: T1, B-cat-Halo (NanoBRET construct …); experiment: cell-based or functional assay

| NanoBRET Abs IC50 [nM] | Binder |
| --- | --- |
| 7100 | B1 |
| 10000 | B2 |
| 9900 | B3 |

target: T2, full-length beta-Catenin (Uniprot ID …); experiment: fluorescence polarization competition; full-length beta-catenin, competitor 5FAM-TCF4(10-53) probe
Procedure, shortened: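 Readings followed a light-protected 60-minute incubation at 20° C. Each read was done in duplicate. Curves were fit with a 1:1 binding model including hill slope, and stated concentrations are final.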

| IC50 [nM] | Binder |
| --- | --- |
| 1550 | Ac-[αAllylPro]DA[B5(21)]DEAA[Phe(2-F)]N[S8]F[Bta]Q-NH2 (staple 1-4, 4-11, Stapled peptide composition) [I-453] |
| 133 | Ac-[αAllylPro]DA[B5(21)]DEAAFN[S8][Phe(2-NO2)][Bta]Q-NH2 (staple 1-4, 4-11, Stapled peptide composition) [I-441] |
| 27 | B4 |
| 44 | B5 |
| 27 | B6 |
| 125 | Ac-[αAllylPro]DA[B5(21)]DEAA[Phe(3-F)]N[S8]F[Bta]Q-NH2 (staple 1-4, 4-11, Stapled peptide composition) [I-454] |
| 57 | B7 |
| 3720 | Ac-[αAllylPro]DA[B5(21)]DEAA[2Thi]Q[S8][Phe(3-F)]WQ-NH2 (staple 1-4, 4-11, Stapled peptide composition) [I-450] |
| 92 | B8 |
| 83.5 | Ac-[αAllylPro]DA[B5(21)]DEAA[Phe(4-F)]N[S8]F[Bta]Q-NH2 (staple 1-4, 4-11, Stapled peptide composition) [I-455] |

target: T3, full-length beta-Catenin (Uniprot ID …); experiment: fluorescence polarization competition; full-length beta-catenin with 5FAM-TCF4(10-53) probe as competitor
Experimental: The plate was incubated protected from light for 60 minutes at 20° C. prior to read. Reads were performed on a CLARIOstar plate reader (BMG Labtech) in duplicate, and data were fitted to a 1:1 binding model with hill slope using an in-house script. All provided concentrations are final concentrations.

| IC50 [nM] | Binder |
| --- | --- |
| 56 | B9 |
| 29 | B1 |
| 14 | B2 |
| 16 | B3 |
